{"source": "paper PMC5573408", "about": "(2017)", "key": {"[1]": {"target": "T1, Cannabinoid receptor 2 (Homo sapiens, UniProt P34972)", "T1 sequence (P34972 whole entry)": "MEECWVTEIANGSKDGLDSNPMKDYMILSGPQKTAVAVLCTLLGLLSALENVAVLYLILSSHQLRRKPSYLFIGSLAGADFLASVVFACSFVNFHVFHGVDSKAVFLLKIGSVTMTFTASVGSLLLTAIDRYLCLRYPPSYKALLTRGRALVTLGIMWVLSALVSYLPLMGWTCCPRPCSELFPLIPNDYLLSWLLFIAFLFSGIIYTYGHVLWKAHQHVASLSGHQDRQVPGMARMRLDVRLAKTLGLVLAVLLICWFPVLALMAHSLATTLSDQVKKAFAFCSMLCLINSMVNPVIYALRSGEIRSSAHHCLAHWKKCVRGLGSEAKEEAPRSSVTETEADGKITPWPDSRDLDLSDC", "experiment": "radioligand binding [3H]WIN55,212-2, ternary complex allosteric model"}, "[2]": {"target": "T1, Cannabinoid receptor 2", "experiment": "fluorescence saturation binding on CHO-K1-hCB2 cells"}, "[3]": {"target": "T1, Cannabinoid receptor 2", "experiment": "radioligand binding [3H]CP55,940, ternary complex allosteric model"}, "[4]": {"target": "T1, Cannabinoid receptor 2", "experiment": "fluorescent pepcan-F4 displacement on CHO-K1-hCB2 cells"}}, "note": "No end group written: not given here. fluorescein = fluorescein, fluorescent label at the C-terminus", "data": [{"binder": "RVDPVNFKLLSH ([3H]WIN55,212-2 present)", "values": [{"measurement": "Kd", "setting": "[1]", "result": 53, "unit": "nM"}]}, {"binder": "RVDPVNFKLLSH-fluorescein", "note": "[Pepcan-F4]", "values": [{"measurement": "Kd", "setting": "[2]", "result": 122, "unit": "nM"}]}, {"binder": "RVDPVNFKLLSH ([3H]CP55,940 present)", "values": [{"measurement": "Kd", "setting": "[3]", "result": 58, "unit": "nM"}]}, {"binder": "RVDPVNFKLLSH", "values": [{"measurement": "Ki", "setting": "[4]", "result": 44, "unit": "nM"}]}]}
